Two molecules from paper PMC10855146, “Secondary Modification of S100B Influences Anti Amyloid-β Aggregation Activity and Alzheimer’s Disease Pathology” (International Journal of Molecular Sciences, 2024) can be followed below.

In series [1] the target is Human recombinant amyloid beta 42 (human, UniProt P05067 672-713). In words: cell-based or functional assay.
Series [2] deals with the molecule itself. In words: SEC; analytical size-exclusion chromatography, Superdex 75 Tricorn, room temperature, 1 mL/min, 50 mM TrisHCl pH 7.4, imidazole as internal standard.

Human recombinant amyloid beta 42, sequence (P05067 672-713): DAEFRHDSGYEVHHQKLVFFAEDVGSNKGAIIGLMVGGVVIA

B1: Human S100B (natural protein, UniProt P04271 1-92, looked up)
chain: MSELEKAMVALIDVFHQYSGREGDKHKLKKSELKELINNELSHFLEEIKEQEVVDKVMETLDNDGDGECDFQEFMAFVAMVTTACHEFFEHE
notes: S100B, human, recombinant; also called non-oxidized S100B; unmodified S100B; source: apo form eluted on Superdex S75
As to B1, the “half-time of ThT-monitored aggregation of monomeric Aβ42 (5 μM) with a 10-fold excess of S100B (0.9 h for Aβ42 alone)” value in series [1] turned out to be 4.5 h. In series [2], the stoichiometry N (as a rule, a count of units in the complex or per binding partner) was found to be 2.

B2: Oxidized S100B (HClO-treated recombinant human S100B) (natural protein, UniProt P04271 1-92, looked up)
chain: B1 chain
modifications: up to three methionine sulfoxide residues per S100Box monomer (positions not given); no Cys oxidation
notes: S100B, human, recombinant, oxidized with HClO; also called S100Box; S100ox
Turning to B2, in series [1], the “blocking of Aβ42 fibril elongation in seeded ThT aggregation assays (5 μM Aβ42, 4-fold excess of S100Box, 0.04 µM pre-formed fibrils), against S100B” value is roughly 3 fold against S100B and the “half-time of ThT-monitored aggregation of monomeric Aβ42 (5 μM) with a 10-fold excess of S100Box (0.9 h for Aβ42 alone)” value came out at 8.5 h. In addition, the “stoichiometry N” value in series [2] stood at 2.
